Data from IntAct's records for PubMed 31515488.

B1: cGMP-dependent protein kinase 1 (Homo sapiens), Q13976 (parent)
chain: MSELEEDFAKILMLKEERIKELEKRLSEKEEEIQELKRKLHKCQSVLPVPSTHIGPRTTRAQGISAEPQTYRSFHDLRQAFRKFTKSERSKDLIKEAILDNDFMKNLELSQIQEIVDCMYPVEYGKDSCIIKEGDVGSLVYVMEDGKVEVTKEGVKLCTMGPGKVFGELAILYNCTRTATVKTLVNVKLWAIDRQCFQTIMMRTGLIKHTEYMEFLKSVPTFQSLPEEILSKLADVLEETHYENGEYIIRQGARGDTFFIISKGTVNVTREDSPSEDPVFLRTLGKGDWFGEKALQGEDVRTANVIAAEAVTCLVIDRDSFKHLIGGLDDVSNKAYEDAEAKAKYEAEAAFFANLKLSDFNIIDTLGVGGFGRVELVQLKSEESKTFAMKILKKRHIVDTRQQEHIRSEKQIMQGAHSDFIVRLYRTFKDSKYLYMLMEACLGGELWTILRDRGSFEDSTTRFYTACVVEAFAYLHSKGIIYRDLKPENLILDHRGYAKLVDFGFAKKIGFGKKTWTFCGTPEYVAPEIILNKGHDISADYWSLGILMYELLTGSPPFSGPDPMKTYNIILRGIDMIEFPKKIAKNAANLIKKLCRDNPSERLGNLKNGVKDIQKHKWFEGFNWEGLRKGTLTPPIIPSVASPTDTSNFDSFPEDNDEPPPDDNSGWDIDF
B2: MIF4G domain-containing protein (Homo sapiens), A9UHW6 (parent)
chain: MGEPSREEYKIQSFDAETQQLLKTALKDPGAVDLEKVANVIVDHSLQDCVFSKEAGRMCYAIIQAESKQAGQSVFRRGLLNRLQQEYQAREQLRARSLQGWVCYVTFICNIFDYLRVNNMPMMALVNPVYDCLFRLAQPDSLSKEEEVDCLVLQLHRVGEQLEKMNGQRMDELFVLIRDGFLLPTGLSSLAQLLLLEIIEFRAAGWKTTPAAHKYYYSEVSD
partner: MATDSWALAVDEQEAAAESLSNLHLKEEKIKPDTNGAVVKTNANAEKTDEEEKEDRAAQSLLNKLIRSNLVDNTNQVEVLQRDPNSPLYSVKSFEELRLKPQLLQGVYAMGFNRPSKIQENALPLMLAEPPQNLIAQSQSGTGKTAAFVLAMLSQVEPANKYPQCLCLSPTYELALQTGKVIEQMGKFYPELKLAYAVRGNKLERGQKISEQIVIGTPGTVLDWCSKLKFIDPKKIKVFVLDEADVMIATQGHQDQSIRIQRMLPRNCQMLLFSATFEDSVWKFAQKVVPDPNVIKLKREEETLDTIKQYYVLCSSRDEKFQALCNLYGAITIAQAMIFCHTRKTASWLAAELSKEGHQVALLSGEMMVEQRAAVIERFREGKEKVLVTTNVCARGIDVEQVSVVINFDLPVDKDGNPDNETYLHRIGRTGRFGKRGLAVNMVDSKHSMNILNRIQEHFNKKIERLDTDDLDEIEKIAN
B3: Pseudouridylate synthase PUS7L (Homo sapiens), Q9H0K6 (parent)
chain: MEEDTDYRIRFSSLCFFNDHVGFHGTIKSSPSDFIVIEIDEQGQLVNKTIDEPIFKISEIQLEPNNFPKKPKLDLQNLSLEDGRNQEVHTLIKYTDGDQNHQSGSEKEDTIVDGTSKCEEKADVLSSFLDEKTHELLNNFACDVREKWLSKTELIGLPPEFSIGRILDKNQRASLHSAIRQKFPFLVTVGKNSEIVVKPNLEYKELCHLVSEEEAFDFFKYLDAKKENSKFTFKPDTNKDHRKAVHHFVNKKFGNLVETKSFSKMNCSAGNPNVVVTVRFREKAHKRGKRPLSECQEGKVIYTAFTLRKENLEMFEAIGFLAIKLGVIPSDFSYAGLKDKKAITYQAMVVRKVTPERLKNIEKEIEKKRMNVFNIRSVDDSLRLGQLKGNHFDIVIRNLKKQINDSANLRERIMEAIENVKKKGFVNYYGPQRFGKGRKVHTDQIGLALLKNEMMKAIKLFLTPEDLDDPVNRAKKYFLQTEDAKGTLSLMPEFKVRERALLEALHRFGMTEEGCIQAWFSLPHSMRIFYVHAYTSKIWNEAVSYRLETYGARVVQGDLVCLDEDIDDENFPNSKIHLVTEEEGSANMYAIHQVVLPVLGYNIQYPKNKVGQWYHDILSRDGLQTCRFKVPTLKLNIPGCYRQILKHPCNLSYQLMEDHDIDVKTKGSHIDETALSLLISFDLDASCYATVCLKEIMKHDV
partner: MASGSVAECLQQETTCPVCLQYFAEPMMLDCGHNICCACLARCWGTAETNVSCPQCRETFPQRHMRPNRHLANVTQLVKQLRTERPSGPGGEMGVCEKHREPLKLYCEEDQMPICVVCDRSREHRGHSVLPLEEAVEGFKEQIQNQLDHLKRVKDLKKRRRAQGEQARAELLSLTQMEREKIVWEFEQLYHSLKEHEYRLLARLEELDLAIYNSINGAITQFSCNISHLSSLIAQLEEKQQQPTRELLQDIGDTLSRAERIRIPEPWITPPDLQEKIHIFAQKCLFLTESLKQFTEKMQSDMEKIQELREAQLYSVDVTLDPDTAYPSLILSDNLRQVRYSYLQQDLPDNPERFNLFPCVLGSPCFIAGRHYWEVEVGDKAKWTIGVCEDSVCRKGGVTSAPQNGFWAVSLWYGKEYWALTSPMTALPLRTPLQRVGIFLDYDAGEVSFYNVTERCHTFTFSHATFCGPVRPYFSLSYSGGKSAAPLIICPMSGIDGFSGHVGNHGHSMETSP
B4: Sorting nexin-15 (Homo sapiens), Q9NRS6 (parent)
chain: MSRQAKDDFLRHYTVSDPRTHPKGYTEYKVTAQFISKKDPEDVKEVVVWKRYSDFRKLHGDLAYTHRNLFRRLEEFPAFPRAQVFGRFEASVIEERRKGAEDLLRFTVHIPALNNSPQLKEFFRGGEVTRPLEVSRDLHILPPPLIPTPPPDDPRLSQLLPAERRGLEELEVPVDPPPSSPAQEALDLLFNCESTEEASGSPARGPLTEAELALFDPFSKEEGAAPSPTHVAELATMEVESARLDQEPWEPGGQEEEEDGEGGPTPAYLSQATELITQALRDEKAGAYAAALQGYRDGVHVLLQGVPSDPLPARQEGVKKKAAEYLKRAEEILRLHLSQLPP
B5: Adiponectin (Homo sapiens), Q15848 (parent)
chain: MLLLGAVLLLLALPGHDQETTTQGPGVLLPLPKGACTGWMAGIPGHPGHNGAPGRDGRDGTPGEKGEKGDPGLIGPKGDIGETGVPGAEGPRGFPGIQGRKGEPGEGAYVYRSAFSVGLETYVTIPNMPIRFTKIFYNQQNHYDGSTGKFHCNIPGLYYFAYHITVYMKDVKVSLFKKDKAMLFTYDQYQENNVDQASGSVLLHLEVGDQVWLQVYGEGERNGLYADNDNDSTFTGFLLYHDTN
B6: Mediator of RNA polymerase II transcription subunit 18 (Homo sapiens), Q9BUE0 (parent)
chain: MEAPPVTMMPVTGGTINMMEYLLQGSVLDHSLESLIHRLRGLCDNMEPETFLDHEMVFLLKGQQASPFVLRARRSMDRAGAPWHLRYLGQPEMGDKNRHALVRNCVDIATSENLTDFLMEMGFRMDHEFVAKGHLFRKGIMKIMVYKIFRILVPGNTDSTEALSLSYLVELSVVAPAGQDMVSDDMKNFAEQLKPLVHLEKIDPKRLM
partner: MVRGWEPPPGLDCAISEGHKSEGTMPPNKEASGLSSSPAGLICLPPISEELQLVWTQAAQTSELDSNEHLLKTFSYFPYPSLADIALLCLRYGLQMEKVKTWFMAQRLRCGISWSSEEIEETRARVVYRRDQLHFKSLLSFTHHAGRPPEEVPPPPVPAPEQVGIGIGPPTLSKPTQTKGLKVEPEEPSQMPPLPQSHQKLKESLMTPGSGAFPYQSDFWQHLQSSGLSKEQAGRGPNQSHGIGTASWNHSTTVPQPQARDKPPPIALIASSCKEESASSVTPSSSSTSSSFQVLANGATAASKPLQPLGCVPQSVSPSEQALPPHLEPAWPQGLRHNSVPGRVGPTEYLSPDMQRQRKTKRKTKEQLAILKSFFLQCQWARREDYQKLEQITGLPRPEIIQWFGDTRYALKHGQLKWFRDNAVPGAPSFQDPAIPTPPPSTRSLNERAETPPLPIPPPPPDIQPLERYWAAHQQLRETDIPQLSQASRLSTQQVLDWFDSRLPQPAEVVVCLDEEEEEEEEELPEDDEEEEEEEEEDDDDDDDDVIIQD
B7: F-box/WD repeat-containing protein 1A (Homo sapiens), Q9Y297 (parent)
chain: MDPAEAVLQEKALKFMCSMPRSLWLGCSSLADSMPSLRCLYNPGTGALTAFQNSSEREDCNNGEPPRKIIPEKNSLRQTYNSCARLCLNQETVCLASTAMKTENCVAKTKLANGTSSMIVPKQRKLSASYEKEKELCVKYFEQWSESDQVEFVEHLISQMCHYQHGHINSYLKPMLQRDFITALPARGLDHIAENILSYLDAKSLCAAELVCKEWYRVTSDGMLWKKLIERMVRTDSLWRGLAERRGWGQYLFKNKPPDGNAPPNSFYRALYPKIIQDIETIESNWRCGRHSLQRIHCRSETSKGVYCLQYDDQKIVSGLRDNTIKIWDKNTLECKRILTGHTGSVLCLQYDERVIITGSSDSTVRVWDVNTGEMLNTLIHHCEAVLHLRFNNGMMVTCSKDRSIAVWDMASPTDITLRRVLVGHRAAVNVVDFDDKYIVSASGDRTIKVWNTSTCEFVRTLNGHKRGIACLQYRDRLVVSGSSDNTIRLWDIECGACLRVLEGHEELVRCIRFDNKRIVSGAYDGKIKVWDLVAALDPRAPAGTLCLRTLVEHSGRVFRLQFDEFQIVSSSHDDTILIWDFLNDPAAQAEPPRSPSRTYTYISR
partner: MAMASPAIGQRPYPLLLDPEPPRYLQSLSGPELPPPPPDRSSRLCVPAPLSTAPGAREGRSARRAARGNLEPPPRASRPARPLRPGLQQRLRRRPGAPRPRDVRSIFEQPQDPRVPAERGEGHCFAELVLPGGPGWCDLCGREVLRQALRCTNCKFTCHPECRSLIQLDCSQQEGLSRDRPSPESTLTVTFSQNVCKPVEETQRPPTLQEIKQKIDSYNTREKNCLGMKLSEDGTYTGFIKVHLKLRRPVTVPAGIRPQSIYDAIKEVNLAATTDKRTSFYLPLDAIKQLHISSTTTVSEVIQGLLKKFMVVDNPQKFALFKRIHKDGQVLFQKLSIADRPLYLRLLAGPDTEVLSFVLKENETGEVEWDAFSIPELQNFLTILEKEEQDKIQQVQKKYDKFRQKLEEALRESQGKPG

Variants of: B1
Details: with rbtn2_human LMO2, P25791
Sequence of rbtn2_human LMO2, P25791 (P25791 whole entry): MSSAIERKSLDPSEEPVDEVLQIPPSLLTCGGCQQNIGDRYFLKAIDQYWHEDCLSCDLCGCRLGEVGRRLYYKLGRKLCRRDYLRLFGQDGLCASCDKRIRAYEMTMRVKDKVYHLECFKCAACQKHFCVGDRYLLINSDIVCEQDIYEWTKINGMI

effect of a mutation on the interaction	Variant
with no effect	N267S

Variants of: B1
Details: with zn646_human ZNF646, O15015
Sequence of zn646_human ZNF646, O15015 (O15015 whole entry): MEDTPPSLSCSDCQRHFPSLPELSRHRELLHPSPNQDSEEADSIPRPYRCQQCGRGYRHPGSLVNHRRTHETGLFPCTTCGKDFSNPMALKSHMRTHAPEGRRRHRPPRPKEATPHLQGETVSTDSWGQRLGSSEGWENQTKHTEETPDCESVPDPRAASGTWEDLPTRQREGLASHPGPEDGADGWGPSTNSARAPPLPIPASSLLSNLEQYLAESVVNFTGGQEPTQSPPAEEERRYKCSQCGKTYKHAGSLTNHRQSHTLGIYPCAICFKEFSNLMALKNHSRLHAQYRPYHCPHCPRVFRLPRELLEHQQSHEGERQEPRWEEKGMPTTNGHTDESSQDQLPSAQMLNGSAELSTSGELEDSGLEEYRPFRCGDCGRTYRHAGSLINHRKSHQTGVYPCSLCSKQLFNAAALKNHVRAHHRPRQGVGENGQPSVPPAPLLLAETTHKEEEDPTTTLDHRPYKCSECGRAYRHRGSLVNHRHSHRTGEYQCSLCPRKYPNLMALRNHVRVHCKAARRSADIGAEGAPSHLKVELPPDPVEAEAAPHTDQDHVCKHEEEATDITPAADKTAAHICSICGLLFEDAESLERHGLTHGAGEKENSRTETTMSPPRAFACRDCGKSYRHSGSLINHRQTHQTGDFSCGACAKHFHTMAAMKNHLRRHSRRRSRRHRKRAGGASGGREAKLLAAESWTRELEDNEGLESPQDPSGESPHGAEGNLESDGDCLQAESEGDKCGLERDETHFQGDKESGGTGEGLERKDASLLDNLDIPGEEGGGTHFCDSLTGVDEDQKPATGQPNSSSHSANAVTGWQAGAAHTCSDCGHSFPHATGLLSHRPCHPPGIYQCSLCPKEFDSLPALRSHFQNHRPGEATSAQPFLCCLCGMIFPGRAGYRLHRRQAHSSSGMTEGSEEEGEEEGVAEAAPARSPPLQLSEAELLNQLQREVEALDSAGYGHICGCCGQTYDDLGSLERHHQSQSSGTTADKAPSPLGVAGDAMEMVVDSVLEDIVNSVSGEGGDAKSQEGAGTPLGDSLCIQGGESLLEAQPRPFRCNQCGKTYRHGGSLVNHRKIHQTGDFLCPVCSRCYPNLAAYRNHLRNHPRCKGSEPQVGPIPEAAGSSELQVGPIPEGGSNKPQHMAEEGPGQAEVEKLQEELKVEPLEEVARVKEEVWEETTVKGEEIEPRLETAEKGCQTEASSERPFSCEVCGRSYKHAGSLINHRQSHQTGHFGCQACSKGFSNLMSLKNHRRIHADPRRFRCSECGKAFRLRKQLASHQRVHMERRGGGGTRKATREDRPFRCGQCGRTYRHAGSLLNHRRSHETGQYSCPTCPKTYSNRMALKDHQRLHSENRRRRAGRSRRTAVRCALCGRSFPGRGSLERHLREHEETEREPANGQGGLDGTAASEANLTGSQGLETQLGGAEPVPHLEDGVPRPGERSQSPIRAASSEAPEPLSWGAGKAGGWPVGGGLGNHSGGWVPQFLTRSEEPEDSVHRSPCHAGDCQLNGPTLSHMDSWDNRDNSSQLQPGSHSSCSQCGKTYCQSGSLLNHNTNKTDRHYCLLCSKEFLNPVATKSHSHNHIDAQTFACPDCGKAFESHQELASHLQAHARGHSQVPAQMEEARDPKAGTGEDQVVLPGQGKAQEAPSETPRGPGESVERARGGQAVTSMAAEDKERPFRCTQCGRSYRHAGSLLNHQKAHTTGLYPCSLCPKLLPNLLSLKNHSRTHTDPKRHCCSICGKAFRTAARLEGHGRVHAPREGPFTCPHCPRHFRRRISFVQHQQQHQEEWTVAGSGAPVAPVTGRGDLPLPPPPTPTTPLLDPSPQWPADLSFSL

effect of a mutation on the interaction	Variant
with no effect	N267S

Variants of: B2
Details: with dd19b_human DDX19B

effect of a mutation on the interaction	Variant
with no effect	E160K

Variants of: B3
Details: with tri27_human TRIM27, P14373

effect of a mutation on the interaction	Variant
disrupting interaction strength	R527C
with no effect	I50V

Variants of: B4
Details: with reep6_human REEP6, Q96HR9
Sequence of reep6_human REEP6, Q96HR9 (Q96HR9 whole entry): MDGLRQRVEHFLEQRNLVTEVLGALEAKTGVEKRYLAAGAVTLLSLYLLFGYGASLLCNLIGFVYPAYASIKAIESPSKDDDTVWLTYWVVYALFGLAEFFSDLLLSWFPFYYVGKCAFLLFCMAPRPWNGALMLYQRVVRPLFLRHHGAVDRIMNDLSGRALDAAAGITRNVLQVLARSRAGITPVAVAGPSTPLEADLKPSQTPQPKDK

effect of a mutation on the interaction	Variant
with no effect	R334C
with no effect	R314C

Variants of: B4
Details: with ar6p1_human ARL6IP1, Q15041
Sequence of ar6p1_human ARL6IP1, Q15041 (Q15041 whole entry): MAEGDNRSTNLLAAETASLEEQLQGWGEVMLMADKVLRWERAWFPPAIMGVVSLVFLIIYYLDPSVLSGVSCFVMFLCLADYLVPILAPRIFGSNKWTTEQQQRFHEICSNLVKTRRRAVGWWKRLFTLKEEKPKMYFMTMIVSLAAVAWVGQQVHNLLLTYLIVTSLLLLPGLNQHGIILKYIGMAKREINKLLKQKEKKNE

effect of a mutation on the interaction	Variant
with no effect	R334C
with no effect	R314C

Variants of: B5
Details: with sgta_human SGTA

effect of a mutation on the interaction	Variant
with no effect	Y111H

Variants of: B6
Details: with homez_human HOMEZ

effect of a mutation on the interaction	Variant
with no effect	M19V

Variants of: B7
Details: with rasf5_human RASSF5, Q8WWW0

effect of a mutation on the interaction	Variant
with no effect	T601S
